Laboratory results reported in publication PMC2856694.

Biological target: T1, gp96 from normal mouse organs (mouse (endogenous in mouse organs)), P08113
T1 chain: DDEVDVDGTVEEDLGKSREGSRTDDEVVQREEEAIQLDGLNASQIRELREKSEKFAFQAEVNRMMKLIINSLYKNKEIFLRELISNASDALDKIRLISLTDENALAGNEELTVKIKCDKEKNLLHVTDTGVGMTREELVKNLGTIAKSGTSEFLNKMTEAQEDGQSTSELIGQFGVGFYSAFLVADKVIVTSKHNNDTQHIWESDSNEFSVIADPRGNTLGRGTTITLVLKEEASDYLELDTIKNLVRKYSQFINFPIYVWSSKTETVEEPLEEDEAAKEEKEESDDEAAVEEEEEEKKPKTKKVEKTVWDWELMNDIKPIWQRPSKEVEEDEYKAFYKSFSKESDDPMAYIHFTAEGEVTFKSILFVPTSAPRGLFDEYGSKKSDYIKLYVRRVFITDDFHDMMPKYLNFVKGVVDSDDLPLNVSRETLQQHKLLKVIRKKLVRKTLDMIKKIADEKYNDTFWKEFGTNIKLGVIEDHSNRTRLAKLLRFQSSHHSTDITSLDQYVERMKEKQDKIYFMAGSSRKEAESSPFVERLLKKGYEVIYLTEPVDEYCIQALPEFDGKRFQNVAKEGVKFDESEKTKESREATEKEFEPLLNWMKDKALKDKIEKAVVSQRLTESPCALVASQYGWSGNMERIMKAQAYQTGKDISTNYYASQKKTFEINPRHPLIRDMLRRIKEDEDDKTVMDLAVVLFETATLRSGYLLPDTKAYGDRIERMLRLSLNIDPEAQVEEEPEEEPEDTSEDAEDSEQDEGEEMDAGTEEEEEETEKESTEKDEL
Assay: non-reducing SDS-PAGE with immunoblot
Conditions: remark: other sources report otherwise

B1: gp96 from normal mouse organs, P08113 22-802 (natural protein)
chain: DDEVDVDGTVEEDLGKSREGSRTDDEVVQREEEAIQLDGLNASQIRELREKSEKFAFQAEVNRMMKLIINSLYKNKEIFLRELISNASDALDKIRLISLTDENALAGNEELTVKIKCDKEKNLLHVTDTGVGMTREELVKNLGTIAKSGTSEFLNKMTEAQEDGQSTSELIGQFGVGFYSAFLVADKVIVTSKHNNDTQHIWESDSNEFSVIADPRGNTLGRGTTITLVLKEEASDYLELDTIKNLVRKYSQFINFPIYVWSSKTETVEEPLEEDEAAKEEKEESDDEAAVEEEEEEKKPKTKKVEKTVWDWELMNDIKPIWQRPSKEVEEDEYKAFYKSFSKESDDPMAYIHFTAEGEVTFKSILFVPTSAPRGLFDEYGSKKSDYIKLYVRRVFITDDFHDMMPKYLNFVKGVVDSDDLPLNVSRETLQQHKLLKVIRKKLVRKTLDMIKKIADEKYNDTFWKEFGTNIKLGVIEDHSNRTRLAKLLRFQSSHHSTDITSLDQYVERMKEKQDKIYFMAGSSRKEAESSPFVERLLKKGYEVIYLTEPVDEYCIQALPEFDGKRFQNVAKEGVKFDESEKTKESREATEKEFEPLLNWMKDKALKDKIEKAVVSQRLTESPCALVASQYGWSGNMERIMKAQAYQTGKDISTNYYASQKKTFEINPRHPLIRDMLRRIKEDEDDKTVMDLAVVLFETATLRSGYLLPDTKAYGDRIERMLRLSLNIDPEAQVEEEPEEEPEDTSEDAEDSEQDEGEEMDAGTEEEEEETEKESTEKDEL
percent of total gp96 migrating at ~200 kDa (disulfide-linked dimer): < 50%
